B1: Escherichia coli FtsZ protein (enzyme, E. coli, UniProt P0A9A6 1-383, looked up)
chain: MFEPMELTNDAVIKVIGVGGGGGNAVEHMVRERIEGVEFFAVNTDAQALRKTAVGQTIQIGSGITKGLGAGANPEVGRNAADEDRDALRAALEGADMVFIAAGMGGGTGTGAAPVVAEVAKDLGILTVAVVTKPFNFEGKKRMAFAEQGITELSKHVDSLITIPNDKLLKVLGRGISLLDAFGAANDVLKGAVQGIAELITRPGLMNVDFADVRTVMSEMGYAMMGSGVASGEDRAEEAAEMAISSPLLEDIDLSGARGVLVNITAGFDLRLDEFETVGNTIRAFASDNATVVIGTSLDPDMNDELRVTVVATGIGMDKRPEITLVTNKQVQQPVMDRYQQHGMAPLTQEQKPVAKVVNDNAPQTAKEPDYLDIPAFLRKQAD
notes: also called recombinant FtsZ; source: E. coli BL21, overexpressed and purified as described previously [7]

In data set [1] the target is T1, FtsZ (recombinant E. coli FtsZ) (Escherichia coli, UniProt P0A9A6).
T1 construct: made in house; host or cells: E. coli BL21
As to the kind of experiment: Fluorescence binding experiment (spectrofluorimetric titration). To be noted: FtsZ 12 μM, peptide 1 to 180 μM, 20 °C, excitation 280 nm, emission 347 nm, one site-specific binding fit, in duplicate; read-out: Kd of FtsZ-peptide complex. Here is the method:
Right panel (d–f): Diagram plots extrapolated from fluorescence data. The experiments were performed in duplicate and the standard deviation is reported as error bars.
(§1) Recombinant E. coli FtsZ was overexpressed and purified from E. coli BL21 strain as described previously. The purity of the protein was analyzed by SDS-PAGE 12.5% and its primary structure was validated by MALDI mapping strategy on a 5800 MALDI-TOF/TOF instrument (ABI Sciex, Foster City, CA, USA). The concentration of purified FtsZ was determined by Bradford’s method, using BSA as a standard. The protein was stored at −80 °C.
Fluorescence experiments were performed using a Fluoromax-4 spectrofluorometer from Horiba Scientific, using 1 cm optical path-length quartz cell under controlled temperature conditions (Peltier control system at 20 °C). The sample was analyzed, monitoring the fluorescence intensity of aromatic residues with an excitation wavelength of 280 nm. The wavelength range explored was 295–500 nm. […] All experiments were repeated in duplicate. The change in the fluorescence intensity of the reaction set was fitted into “one site-specific binding” equation of GraphPad Prism 5 (GraphPad Software, San Diego, CA, USA).

In data set [2] the target is T1, FtsZ (recombinant E. coli FtsZ). As to the kind of experiment: GTPase activity assay (BIOMOL Green Pi release). Format: biochemical. As to conditions: 35 µM peptide, GTP substrate, 25 mM PIPES/NaOH pH 6.8. As for the experimental part: The putative effect of the two TL analogues on FtsZ GTPase activity was evaluated by enzymatic assays.
The reaction was performed for 10 min and the Pi release was determined by measuring the absorbance at 620 nm following 25 min incubation. (b) Lineweaver−Burk plots from which the KM constants were calculated. (c) Calculated KM constants and Vmax for the enzymatic assays. The experiment was performed in duplicate and presented as mean ± standard error.
as §1
The amount of Pi released during the assembly of FtsZ was measured using BIOMOL Green phosphate reagent (Biomol, Milan, Italy) as described earlier. […] The reaction was performed for 10 min and stopped by addition of 100 µL BIOMOL Green reagent. The Pi release was determined after incubation at 25 °C for 25 min by measuring the absorbance at 620 nm. The background was subtracted from all the readings. The experiment was performed in duplicate. […]

Data set [3] deals with the molecule itself. As to the kind of experiment: co-sedimentation; polymerization assay: FtsZ 12 µM in 25 mM PIPES/NaOH pH 6.8, 1 mM GTP, 25 °C 1 h, without or with 10, 30, 50, 70 µM peptide; centrifugation 14,000 rpm 60 min, pellet on SDS-PAGE, densitometry.
The target of data set [4] is B1. As to the kind of experiment: other fluorescence titration; intrinsic fluorescence of FtsZ (12 µM), excitation 280 nm, emission 347 nm, 20 °C, peptide from 1 to 180 µM, fitted to 'one site-specific binding', duplicate. To be noted: both partners purified.

Ends that are not written are not given here.

As for FVKWFKKFLTRILF [TRILF], the Kd (as a rule, the constant that tells how readily two partners part at equilibrium) in data set [1] worked out at 4.3 ± 0.2 µM.

For the molecule Magainin-2, the “effect on FtsZ GTPase activity (in words)” value in data set [2] is listed as “no effect on the GTP activity”. For the molecule B1, in data set [3], the binding result is “binds”.

B2: Native Temporin L (peptide)
peptide: FVQWFSKFLGRIL
notes: Temporin-L, amphibian antimicrobial peptide, 13 residues; also called TL; native TL
Take B2: in data set [4], the Kd came to 11 ± 1 µM.

B3: TRIL (Temporin-L analogue) (peptide)
peptide: FVKWFKKFLTRIL
notes: Temporin-L with Q3K, S6K and G10T; Designed from the docking model of FtsZ with TL
In turn, B3 gave a Kd in data set [4] of 21.4 ± 1.1 µM.

Values taken from publication PMC8230800, “Interaction of Temporin-L Analogues with the E. coli FtsZ Protein” (Antibiotics, 2021).
